How the values were obtained:
Experiment in all cases: shotgun mutagenesis, immunodetection on BHK-S cells, 0.25 ug/mL, background-subtracted and normalised to WT, triplicate
[1] = target: T1, human MCAM L225A mutant clone on BHK-S cells (human) (UniProt P43121)
T1 sequence: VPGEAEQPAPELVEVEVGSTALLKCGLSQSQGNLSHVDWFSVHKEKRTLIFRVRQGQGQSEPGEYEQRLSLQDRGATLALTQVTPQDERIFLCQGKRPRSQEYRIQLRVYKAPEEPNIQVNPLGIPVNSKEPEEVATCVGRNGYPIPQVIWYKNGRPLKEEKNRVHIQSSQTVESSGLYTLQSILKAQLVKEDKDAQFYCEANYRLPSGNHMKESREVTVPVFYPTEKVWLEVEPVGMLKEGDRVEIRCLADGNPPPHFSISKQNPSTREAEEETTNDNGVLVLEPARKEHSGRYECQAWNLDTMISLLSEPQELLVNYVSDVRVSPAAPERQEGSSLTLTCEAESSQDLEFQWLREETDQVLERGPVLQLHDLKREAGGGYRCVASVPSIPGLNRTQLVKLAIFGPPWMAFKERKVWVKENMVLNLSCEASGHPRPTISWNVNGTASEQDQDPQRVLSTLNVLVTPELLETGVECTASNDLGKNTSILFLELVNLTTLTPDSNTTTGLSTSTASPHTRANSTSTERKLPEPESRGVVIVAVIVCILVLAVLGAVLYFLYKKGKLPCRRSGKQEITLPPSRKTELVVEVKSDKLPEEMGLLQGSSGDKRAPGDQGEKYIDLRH

[2] = target: T2, human MCAM I207A mutant clone on BHK-S cells (human) (UniProt P43121)
T2 sequence: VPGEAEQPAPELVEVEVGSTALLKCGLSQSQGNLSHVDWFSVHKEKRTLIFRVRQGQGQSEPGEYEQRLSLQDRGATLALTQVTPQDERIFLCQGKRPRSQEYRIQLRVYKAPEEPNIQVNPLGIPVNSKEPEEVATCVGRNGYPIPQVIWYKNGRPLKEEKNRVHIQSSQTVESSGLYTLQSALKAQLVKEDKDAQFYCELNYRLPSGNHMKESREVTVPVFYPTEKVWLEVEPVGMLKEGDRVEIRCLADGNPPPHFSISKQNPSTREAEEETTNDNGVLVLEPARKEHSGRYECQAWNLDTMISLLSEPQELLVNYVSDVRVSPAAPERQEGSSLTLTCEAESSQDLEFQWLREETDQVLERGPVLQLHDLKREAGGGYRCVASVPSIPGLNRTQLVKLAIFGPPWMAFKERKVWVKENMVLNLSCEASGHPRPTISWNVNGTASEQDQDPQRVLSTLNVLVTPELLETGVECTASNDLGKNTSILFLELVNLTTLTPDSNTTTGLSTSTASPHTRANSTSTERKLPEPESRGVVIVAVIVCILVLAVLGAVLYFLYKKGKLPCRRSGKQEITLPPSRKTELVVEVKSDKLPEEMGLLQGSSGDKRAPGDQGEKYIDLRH

[3] = target: T3, human MCAM S238A mutant clone on BHK-S cells (human) (UniProt P43121)
T3 sequence: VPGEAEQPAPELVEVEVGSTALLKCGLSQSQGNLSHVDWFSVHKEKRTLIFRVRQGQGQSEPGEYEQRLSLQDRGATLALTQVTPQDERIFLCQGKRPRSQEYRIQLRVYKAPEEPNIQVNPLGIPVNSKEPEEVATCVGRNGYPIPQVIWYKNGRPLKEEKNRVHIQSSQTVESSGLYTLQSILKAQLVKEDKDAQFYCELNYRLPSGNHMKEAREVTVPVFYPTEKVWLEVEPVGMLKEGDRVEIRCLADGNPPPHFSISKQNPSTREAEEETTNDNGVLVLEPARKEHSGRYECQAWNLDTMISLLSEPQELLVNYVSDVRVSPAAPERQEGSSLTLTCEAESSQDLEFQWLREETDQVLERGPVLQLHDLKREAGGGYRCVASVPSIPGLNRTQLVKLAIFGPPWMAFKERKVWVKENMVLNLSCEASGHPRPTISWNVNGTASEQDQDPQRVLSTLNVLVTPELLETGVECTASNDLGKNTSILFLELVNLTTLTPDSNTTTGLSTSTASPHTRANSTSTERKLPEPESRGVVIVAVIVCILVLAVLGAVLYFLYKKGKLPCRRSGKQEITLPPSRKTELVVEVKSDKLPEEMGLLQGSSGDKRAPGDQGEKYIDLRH

[4] = target: T4, human MCAM S206A mutant clone on BHK-S cells (human) (UniProt P43121)
T4 sequence: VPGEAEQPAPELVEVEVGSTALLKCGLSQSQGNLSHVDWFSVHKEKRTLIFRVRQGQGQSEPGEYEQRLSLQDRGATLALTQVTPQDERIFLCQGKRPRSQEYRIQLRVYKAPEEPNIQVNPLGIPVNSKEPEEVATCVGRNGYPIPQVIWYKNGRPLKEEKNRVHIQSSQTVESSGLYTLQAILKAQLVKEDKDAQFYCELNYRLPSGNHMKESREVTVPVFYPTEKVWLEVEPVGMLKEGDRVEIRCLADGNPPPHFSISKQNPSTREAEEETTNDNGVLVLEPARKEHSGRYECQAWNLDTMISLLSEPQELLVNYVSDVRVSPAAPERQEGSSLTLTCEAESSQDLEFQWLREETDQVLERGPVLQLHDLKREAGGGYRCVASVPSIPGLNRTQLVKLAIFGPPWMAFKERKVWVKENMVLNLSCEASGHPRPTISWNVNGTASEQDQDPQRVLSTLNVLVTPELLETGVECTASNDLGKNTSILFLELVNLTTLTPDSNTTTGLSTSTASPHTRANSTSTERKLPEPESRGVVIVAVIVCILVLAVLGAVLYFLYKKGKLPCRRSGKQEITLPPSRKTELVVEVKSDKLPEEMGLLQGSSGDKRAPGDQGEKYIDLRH

B1: rat anti-human MCAM monoclonal antibody clone 2120.4.19 (antibody, V domains shown)
VH: QVQLKESGPGLVQPSQTLSLTCTVSGFSLTSNGVSWVRQPPGKGLEWIAAISSGGTTYYNSAFKSRLSISRNTSKSQVLLKMNSLQTEDTAMYFCARRYGYGWYFDFWGPGTMVTVSS
VL: DIRMTQSPSLLSASVGDRVTLNCKASQNIYNSLAWYQQKLGEGPKVLIPNANSLQTGIPSRFSGSGSGTDFTLTISSLQPEDFATYFCQQFYSGYTFGAGTKLELK
notes: also called m2120
- mean reactivity (% of wild type MCAM) [1]: 23.8 % WT
- mean reactivity (% of wild type MCAM) [2]: 23.6 % WT
- mean reactivity (% of wild type MCAM) [3]: 28.9 % WT
- mean reactivity (% of wild type MCAM) [4]: 17.9 % WT
